From patent US20190375820A1 (ACCELERON PHARMA, published 2019) come the findings set out here.

One test concerns the target T1, activin C (UniProt P55103 237-352).
T1 sequence (looked up): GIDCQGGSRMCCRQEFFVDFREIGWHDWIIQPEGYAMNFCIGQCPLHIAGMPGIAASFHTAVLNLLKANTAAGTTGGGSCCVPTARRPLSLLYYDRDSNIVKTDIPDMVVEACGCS
The test is described as follows: SPR (Biacore); receptor-Fc captured via anti-Fc antibody, ligand injected. The protocol: (§1) Ligands were injected and allowed to flow over the captured receptor protein.
For orientation: SPR reads the build-up and loss of mass on a sensor chip optically.

In another test the target is T2, activin AC (UniProt P08476 311-426; P55103 237-352).
T2 sequence (looked up) 1: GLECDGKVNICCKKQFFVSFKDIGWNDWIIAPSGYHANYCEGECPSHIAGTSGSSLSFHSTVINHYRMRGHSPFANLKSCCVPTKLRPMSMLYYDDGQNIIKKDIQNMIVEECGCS
T2 sequence (looked up) 2: T1 sequence (looked up)
Described as above. The protocol: as §1

B1: ALK7-Fc homodimer (Fc fusion)
chain: LSPGLKCVCLLCDSSNFTCQTEGACWASVMLTNGKEQVIKSCVSLPELNAQVFCHSSNNVTKTECCFTDFCNNITLHLPTASPNAPKLGPME
notes: also called ALK7-Fc homodimeric complex; ALK7 homodimer; not shown: linker and Fc domain
Consider B1, for which, in the test with activin C, the binding result is reported as “no binding”.

B2: ActRIIB-Fc:ALK7-Fc heterodimer (Fc fusion)
chain 1: GRGEAETRECIYYNANWELERTNQSGLERCEGEQDKRLHCYASWRNSSGTIELVKKGCWLDDFNCYDRQECVATEENPQVYFCCCEGNFCNERFTHLPEAGGPEVTYEPPPTAPTGGGTHTCPPCPAPELLGGPSVFLFPPKPKDTLMISRTPEVTCVVVDVSHEDPEVKFNWYVDGVEVHNAKTKPREEQYNSTYRVVSVLTVLHQDWLNGKEYKCKVSNKALPAPIEKTISKAKGQPREPQVYTLPPSRKEMTKNQVSLTCLVKGFYPSDIAVEWESNGQPENNYKTTPPVLKSDGSFFLYSKLTVDKSRWQQGNVFSCSVMHEALHNHYTQKSLSLSPGK
chain 2: GLKCVCLLCDSSNFTCQTEGACWASVMLTNGKEQVIKSCVSLPELNAQVFCHSSNNVTKTECCFTDFCNNITLHLPTASPNAPKLGPMETGGGTHTCPPCPAPELLGGPSVFLFPPKPKDTLMISRTPEVTCVVVDVSHEDPEVKFNWYVDGVEVHNAKTKPREEQYNSTYRVVSVLTVLHQDWLNGKEYKCKVSNKALPAPIEKTISKAKGQPREPQVYTLPPSREEMTKNQVSLTCLVKGFYPSDIAVEWESNGQPENNYDTTPPVLDSDGSFFLYSDLTVDKSRWQQGNVFSCSVMHEALHNHYTQKSLSLSPG
notes: The receptor parts are the same in both pairs; only the Fc domains differ; also called ALK7-Fc:ActRIIB-Fc heterodimer; ActRIIB-Fc:ALK7-Fc heterodimeric complex
As to B2, in the test with activin AC, binding was put at a Kd of 0.22 nM; the off-rate constant (koff) – broadly, the rate constant with which the complex falls apart – is 0.00057 s⁻¹; the kon (commonly the second-order rate constant of association) came to 2.6e+06 M⁻¹ s⁻¹. Further, in the test with activin C, binding was put at a Kd of 6.9 nM, the koff amounted to 0.0024 s⁻¹ and the kon was determined as 350000 M⁻¹ s⁻¹.

B3: ActRIIB-Fc homodimer (Fc fusion)
chain: SGRGEAETRECIYYNANWELERTNQSGLERCEGEQDKRLHCYASWRNSSGTIELVKKGCWLDDFNCYDRQECVATEENPQVYFCCCEGNFCNERFTHLPEAGGPEVTYEPPPTAPTLLT
notes: also called ActRIIB-Fc homodimeric complex; ActRIIB homodimer; not shown: linker and Fc domain
As to B3, in the test with activin AC, the Kd (as a rule, the constant that tells how readily two partners part at equilibrium) was found to be 0.16 nM; the off-rate (koff) stood at 0.0031 s⁻¹; the kon was determined as 2e+07 M⁻¹ s⁻¹.
